Data from US7803572B2, “Protease detection assay” (Atlas Genetics, Ltd., priority 2003, dated 2010).

How the values were obtained:
trypsin = molecular target: T1, trypsin (Sus scrofa, UniProt P00761); experiment: Amperometric analysis of trypsin digestion; format: biochemical, porcine; settings: amperometric time course trace
T1 construct: purchased Sigma; host or cells: porcine pancreas
Procedure: Four digestion reactions were carried out with real-time amperometric analysis. […] Tryspin was resuspended in HCl (1 mM, pH 3.0), papain and carboxypeptidase were resuspended in NaCl (100 mM). […] The amperometry conditions were as set out in Tables 2 and 3.
In FIG. 17, there is shown the amperometric time course trace for the trypsin digestion of Fc-BSA. […] As the movement of the species present in the solution reaches a steady state, the current response appears to decay.
In FIG. 18, there is shown the amperometric time course trace for the papain digestion of FcU-BSA. […] As the movement of the species present in the solution reaches a steady state, the current response appears to decay. […] The amperometric time course trace for the trypsin digestion of FcU-BSA is not illustrated in the drawings but was analogous.

carboxypeptidase = experiment: Digestion of Fc-BSA with carboxypeptidase, differential pulse voltammetry; format: biochemical
Procedure: (§1) Protease assays were performed as follows unless stated otherwise. […] Samples were incubated at 37° C. for 1 hour.
A digestion of Fc-BSA with carboxypeptidase was carried out as described above. […] The positive reaction has a peak position of 435 mV and a peak height of 1.31×10^−7 A; the no elastase control reaction has a peak position of 427 mV and a peak height of 6.86×10^−8 A.

porcine pancreas trypsin = molecular target: T2, porcine pancreas trypsin (Sus scrofa, UniProt P00761); experiment: Effect of a protease inhibitor on electrochemical marker signal (trypsin digestion of Fc-BSA); format: biochemical; settings: reaction (i): no inhibitor added
T2 construct: purchased Sigma; host or cells: porcine pancreas
T2 sequence (P00761 9-231): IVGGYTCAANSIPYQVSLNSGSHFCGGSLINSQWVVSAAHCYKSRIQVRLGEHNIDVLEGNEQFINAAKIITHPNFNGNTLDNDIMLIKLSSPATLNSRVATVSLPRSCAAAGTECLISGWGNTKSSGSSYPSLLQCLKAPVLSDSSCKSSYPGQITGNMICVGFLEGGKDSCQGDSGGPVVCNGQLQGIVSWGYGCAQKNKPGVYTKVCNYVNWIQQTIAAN
Procedure: as §1
Five digestions of Fc-BSA with trypsin were carried out using the protocol described above. In addition, soybean trypsin inhibitor was added to reaction mixtures […]. Solutions of the soybean trypsin inhibitor were prepared by resuspending inhibitor as supplied in deionised water to a concentration of 10 mg/ml and 1 mg/ml as appropriate. No inhibitor was added to reaction (i); 0.5 μl of 1 mg/ml inhibitor solution was added to reaction (ii); […] of 10 mg/ml inhibitor was added to reaction (iii); 5 μl of 10 mg/ml inhibitor solution was added to reaction (iv) and 5 μl of 10 mg/ml inhibitor solution was added to a no-trypsin control reaction. The differential pulse voltammogram results are shown in FIG. 16 with baseline correction.

T1 sequence (P00761 9-231): as above

Substance: Fc-BSA: Bovine serum albumin labelled with ferrocene methanoyl groups via N-hydroxysuccinimide ester; estimated 10 to 20 ferrocenes per BSA
- faradaic current response over time after addition of the enzyme (trypsin): increase in current
- peak height (carboxypeptidase; no elastase control reaction (so in the source)): 6.86×10^−8 A
- peak height (carboxypeptidase; positive reaction, 37° C. for 1 hour): 1.31×10^−7 A
- peak height (porcine pancreas trypsin): 2.56×10^−7 A
- peak position (porcine pancreas trypsin): 439 mV
